Measurements published in publication PMC9732051, “Divergent self-association properties of paralogous proteins TRIM2 and TRIM3 regulate their E3 ligase activity” (Nature Communications, 2022).

B1: human TRIM2 RING-B-box2 (2-156) (domain or fragment, UniProt Q9C040 2-156, looked up)
chain: ASEGTNIPSPVVRQIDKQFLICSICLERYKNPKVLPCLHTFCERCLQNYIPAHSLTLSCPVCRQTSILPEKGVAALQNNFFITNLMDVLQRTPGSNAEESSILETVTAVAAGKPLSCPNHDGNVMEFYCQSCETAMCRECTEGEHAEHPTVPLKD
notes: human TRIM2, RB2 construct, residues 2-156; also called TRIM2 RB2; source: E. coli BL21 (DE3), purified (Ni-NTA, His6 cleaved by HRV 3C, SEC); not shown: His6, N-terminal, cleaved
B2: human TRIM3 RING (2-95) (domain or fragment)
chain: GPGAKREDSPGPEVQPMDKQFLVCSICLDRYQCPKVLPCLHTFCERCLQNYIPAQSLTLSCPVCRQTSILPEQGVSALQNNFFISSLMEAMQQAPDG
notes: tripeptide Gly-Pro-Gly left at the N-terminus by 3C protease cleavage; human TRIM3, RING construct, residues 2-95; also called T3R; source: E. coli BL21 (DE3), purified (Ni-NTA, His6 cleaved by HRV 3C, SEC); not shown: His6, N-terminal, cleaved
B3: human TRIM3 tripartite motif RBCC (2-313) (domain or fragment, UniProt O75382 2-313, looked up)
chain: AKREDSPGPEVQPMDKQFLVCSICLDRYQCPKVLPCLHTFCERCLQNYIPAQSLTLSCPVCRQTSILPEQGVSALQNNFFISSLMEAMQQAPDGAHDPEDPHPLSVVAGRPLSCPNHEGKTMEFYCEACETAMCGECRAGEHREHGTVLLRDVVEQHKAALQRQLEAVRGRLPQLSAAIALVGGISQQLQERKAEALAQISAAFEDLEQALQQRKQALVSDLETICGAKQKVLQSQLDTLRQGQEHIGSSCSFAEQALRLGSAPEVLLVRKHMRERLAALAAQAFPERPHENAQLELVLEVDGLRRSVLNLG
notes: human TRIM3, RBCC construct, residues 2-313; also called TRIM3 RBCC; source: E. coli BL21 (DE3), purified (Ni-NTA, His6 cleaved by HRV 3C, SEC); not shown: His6, N-terminal, cleaved
B4: human TRIM2 RING (2-95) (domain or fragment, UniProt Q9C040 2-95, looked up)
chain: ASEGTNIPSPVVRQIDKQFLICSICLERYKNPKVLPCLHTFCERCLQNYIPAHSLTLSCPVCRQTSILPEKGVAALQNNFFITNLMDVLQRTPG
notes: human TRIM2, RING construct, residues 2-95; likely on this pET49b construct too; also called T2R; RING1; source: E. coli BL21 (DE3), purified (Ni-NTA, His6 cleaved by HRV 3C, SEC); not shown: His6, N-terminal, cleaved
B5: chimera of the TRIM2 N- and C-terminal α-helices (2-16/84-95) and the TRIM3 core RING (16-82) (other, human, UniProt Q9C040 2-16, looked up)
chain: ASEGTNIPSPVVRQIDKQFLVCSICLDRYQCPKVLPCLHTFCERCLQNYIPAQSLTLSCPVCRQTSILPEQGVSALQNNFFITNLMDVLQRTPG
notes: human TRIM2, N-terminal α-helix, residues 2-16; human TRIM3, core RING domain, residues 16-82; human TRIM2, C-terminal α-helix, residues 84-95; also called T2αs-T3Rcore; T2Rαs-T3Rcore; source: E. coli BL21 (DE3), purified (Ni-NTA, His6 cleaved by HRV 3C, SEC); not shown: His6, N-terminal, cleaved
B6: human TRIM2 tripartite motif RBCC (2-316) (domain or fragment, UniProt Q9C040 2-316, looked up)
chain: ASEGTNIPSPVVRQIDKQFLICSICLERYKNPKVLPCLHTFCERCLQNYIPAHSLTLSCPVCRQTSILPEKGVAALQNNFFITNLMDVLQRTPGSNAEESSILETVTAVAAGKPLSCPNHDGNVMEFYCQSCETAMCRECTEGEHAEHPTVPLKDVVEQHKASLQVQLDAVNKRLPEIDSALQFISEIIHQLTNQKASIVDDIHSTFDELQKTLNVRKSVLLMELEVNYGLKHKVLQSQLDTLLQGQESIKSCSNFTAQALNHGTETEVLLVKKQMSEKLNELADQDFPLHPRENDQLDFIVETEGLKKSIHNLG
notes: human TRIM2, RBCC construct, residues 2-316; also called TRIM2 RBCC; source: E. coli BL21 (DE3), purified (Ni-NTA, His6 cleaved by HRV 3C, SEC); not shown: His6, N-terminal, cleaved

Experiments:
[1] = target: the molecule itself; assay: SEC-MALLS; Superdex 75 or 200 10/300 GL Increase; 20 mM HEPES pH 7.5, 150 mM NaCl, 0.5 mM TCEP, 3 mM NaN3; 25 °C; 100 μl samples at multiple concentrations (5, 3, 2 and 1 mg/ml in Fig. 1b)
[2] = target: T1, 15N-labelled UBE2D3 (C85S) (UniProt P61077 1-147, mutation of the catalytic cysteine (C85) to serine); assay: NMR titration; 1H-15N HSQC of 200 µM 15N-UBE2D3 (C85S) titrated with unlabelled RING (0 to 2 molar equivalents); 298 K; 25 mM Na-phosphate pH 7.0, 150 mM NaCl; Kd from fits of chemical shift changes; conditions: both partners purified
T1 construct: UBE2D3 with the catalytic cysteine (C85) mutated to serine; Uniformly 15N-enriched; source: bacteria grown in M9 minimal medium with 15N-ammonium chloride
T1 sequence (P61077 whole entry C85S): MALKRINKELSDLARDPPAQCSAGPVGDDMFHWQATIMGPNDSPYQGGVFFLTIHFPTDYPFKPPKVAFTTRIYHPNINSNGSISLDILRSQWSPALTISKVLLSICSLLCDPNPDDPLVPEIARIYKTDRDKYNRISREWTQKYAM

[3] = target: 15N-labelled UBE2D3 (C85S) (UniProt P61077 1-147, mutation of the catalytic cysteine (C85) to serine); assay: NMR; residue K101
Target sequence in this assay (P61077 whole entry C85S): as above

Binder | stoichiometry N [1] | Kd [2] | further results
B1 | 2 | – | –
B2 | – | ~300 µM | –
B3 | 2 | – | –
B4 | 2 | ~590 µM | Kd [3]: 643 µM
B5 | – | – | binding result [1]: binds
B6 | 4 | – | –
